Legend:
[1] = target: T1, human CD147 antigen (human, UniProt P35613-2 22-205, limits assumed); test: SPR, ProteOn XPR36, antibody amine-coupled to GLC chip, human CD147 0.375-6 nM as analyte, 25 C; second set of experiments (FIG. 3B)
T1 sequence (looked up): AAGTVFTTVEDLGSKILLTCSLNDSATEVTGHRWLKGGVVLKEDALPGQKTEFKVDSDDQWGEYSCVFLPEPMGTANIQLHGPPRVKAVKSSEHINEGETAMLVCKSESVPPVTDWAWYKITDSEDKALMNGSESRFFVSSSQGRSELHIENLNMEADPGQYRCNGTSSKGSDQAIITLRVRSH
Method: (§1) The affinity (KD) for the binding of human CD147 antigen to selected antibodies was measured by Surface plasmon resonance analysis on a multi-SPR array system (ProteOn XPR36™, Bio-Rad). Data analysis was performed using ProteOn Manager Software (Bio-Rad). Briefly, the running buffer PBST (0.005% Tween-20 in PBS) was used continuously throughout the entire experiment at 25° C. A ProteOn GLC sensor chips (Bio-Rad) was activated for 6 min using a mixture of 0.2M EDC and 5 mM sulfo-NHS at a flow rate of 20 μl/min, followed by diluting 260 μl of 10 μg/mL each antibody in 10 mM acetate buffer at pH 4.5. The surface of the sensor chip was then deactivated with 150 μl of IM Ethanolamine Hydrochloride (pH 8.5). The sensor surface was regenerated through a wash (about 3 min) with HBS-EP buffer until the baseline was restored. A reference cell without antibodies was prepared by a similar procedure. 5 different concentrations of human CD147 antigen (0.375, 0.75, 1.5, 3, and 6 nM) were injected in channels 1 to 5, respectively, at flow rate of 50 μl/min, 3 min. A reference channel was prepared in the same manner without injection of CD147 antigen. The SPR binding responses were collected and analyzed using the ProteOn data manager program. […]

[2] = target: T1, human CD147 antigen; test: SPR (ProteOn XPR36), antibody immobilised on a GLC chip, human CD147 antigen injected at 0.375-6 nM, 25 C
Method: The affinity (KD) for the binding of human CD147 antigen to selected antibodies was measured by Surface plasmon resonance analysis on a multi-SPR array system (ProteOn XPR36™, Bio-Rad). Data analysis was performed using ProteOn Manager Software (Bio-Rad). Briefly, the running buffer PBST (0.005% Tween-20 in PBS) was used continuously throughout the entire experiment at 25° C. A ProteOn GLC sensor chips (Bio-Rad) was activated for 6 min using a mixture of 0.2M EDC and 5 mM sulfo-NHS at a flow rate of 20 μl/min, followed by diluting 260 μl of 10 μg/mL each antibody in 10 mM acetate buffer at pH 4.5. The surface of the sensor chip was then deactivated with 150 μl of IM Ethanolamine Hydrochloride (pH 8.5). The sensor surface was regenerated through a wash (about 3 min) with HBS-EP buffer until the baseline was restored. A reference cell without antibodies was prepared by a similar procedure. 5 different concentrations of human CD147 antigen (0.375, 0.75, 1.5, 3, and 6 nM) were injected in channels 1 to 5, respectively, at flow rate of 50 μl/min, 3 min. A reference channel was prepared in the same manner without injection of CD147 antigen. The SPR binding responses were collected and analyzed using the ProteOn data manager program.
Two sets of experiments were performed, in the first set of experiments, the human CD147 binding affinity of HAb18 and Metuzumab were compared (data shown in FIG. 3A), in the second set of experiments the human CD147 binding affinity of cHAb18 and Metuzumab were compared (data shown in FIG. 3B).

[3] = target: T1, human CD147 antigen; test: SPR, ProteOn XPR36, antibody amine-coupled to GLC chip, human CD147 0.375-6 nM as analyte, 25 C; first set of experiments (FIG. 3A)
Method: as §1

B1: Metuzumab (antibody, human IgG1, kappa, V domains shown)
VH: EVKLEESGGGLVQPGGSMKLSCVASGFTFSDAWMDWVRQSPEKGLEWVAEIRSKANNHAPYYTESVKGRFTISRDDSKSIIYLQMNNLRAEDTGIYYCTRDSTATHWGQGTLVTVSA
VL: SIVMTQTPTFLVVSAGDRVTITCKASQSVINDVAWYQQKPGQSPKLLIFYASNRNTGVPDRFTGSGYGTDFTFTISTVQAEDLAVYFCQQDYSPPFTFGSGTKLEIKR
modifications: N-linked Mannose-5 oligosaccharide in the Fc region, no fucose or xylose residue detected (site not numbered in the filing)
notes: Human-mouse chimeric IgG1 made in acetyl-glucosamine transferase deficient CHO K1 MAGE1.5 cells; only the glycoform differs; Residues 1-16 are left out on that basis; also called HcHAb18; glycosylation modified chimeric antibody Metuzumab
- Kd [1]: 429 pM
- Kd [2]: 362 pM
- koff [2]: 0.000417 s⁻¹
- kon [2]: 1.15e+06 M⁻¹ s⁻¹
- Kd [3]: 321 pM

B2: cHAb18 (antibody, human IgG1, kappa, V domains shown)
VH: EVKLEESGGGLVQPGGSMKLSCVASGFTFSDAWMDWVRQSPEKGLEWVAEIRSKANNHAPYYTESVKGRFTISRDDSKSIIYLQMNNLRAEDTGIYYCTRDSTATHWGQGTLVTVSA
VL: SIVMTQTPTFLVVSAGDRVTITCKASQSVINDVAWYQQKPGQSPKLLIFYASNRNTGVPDRFTGSGYGTDFTFTISTVQAEDLAVYFCQQDYSPPFTFGSGTKLEIKR
modifications: N-linked fucosylated oligosaccharides, G0F, G1F and G1F' glycoforms (site not numbered in the filing)
notes: Human-mouse chimeric IgG1 made in CHO K1 cells; also called chimeric antibody cHAb18; cHAb18 mAb
- Kd [1]: 475 pM

B3: HAb18 (antibody, V domains shown)
VH: EVKLEESGGGLVQPGGSMKLSCVASGFTFSDAWMDWVRQSPEKGLEWVAEIRSKANNHAPYYTESVKGRFTISRDDSKSIIYLQMNNLRAEDTGIYYCTRDSTATHWGQGT
VL: SIVMTQTPTFLVVSAGDRVTITCKASQSVINDVAWYQQKPGQSPKLLIFYASNRNTGVPDRFTGSGYGTDFTFTISTVQAEDLAVYFCQQDYSPPFTFGSGTKLEIKR
notes: Murine monoclonal antibody from hybridoma CGMCC NO; 0426; The variable domains are tied to HAb18 through cHAb18, whose variable domains are 'derived from HAb18'; also called original mouse antibody HAb18; anti-CD147 murine monoclonal antibody HAb18
- Kd [2]: 321 pM
- koff [2]: 0.000351 s⁻¹
- kon [2]: 1.09e+06 M⁻¹ s⁻¹
- Kd [3]: 362 pM

Reference: US20170101469A1 (FOURTH MILITARY MEDICAL UNIVERSITY, published 2017)
